We go through 4 substances from patent US20260284219A1, “ANTIBODY CONJUGATE, AND USES THEREOF” (Acepodia Biotechnologies, Ltd., priority 2024, published 2026).

pEC50: −log10 of the molar value.

The nature of data set [1]: Aggregation by size exclusion chromatography HPLC (SEC-HPLC). Particulars: SEC-HPLC of DAR10 dual-payload antibody drug conjugates. Format: physicochemical. (Size exclusion chromatography separates by hydrodynamic size, large species first.)
The target in data set [2] is His-tagged human PDL1 recombinant protein (Homo sapiens, UniProt Q9NZQ7). As to the kind of experiment: Binding affinity ELISA on plates coated with PDL1. Particulars: for pEC50: N = 3; for EC50 of the conjugate relative to EC50 of atezolizumab: PDL1 binding; for PDL1 binding signal compared with atezolizumab: among the concentration range, signal at 450 nm. As to the method: The blocked His-tagged human PDL1 recombinant protein-coated white plate was then incubated with atezolizumab, atezolizumab-govitecan (DAR10), or the isotype control antibody at different concentrations at 37° C. for 1 hour. The unbound atezolizumab, atezolizumab-govitecan (DAR10), or the isotype control antibody was washed away with PBST.
The blocked His-tagged human PDL1 recombinant protein-coated white plate was then incubated with atezolizumab or atezolizumab-deruxtecan-vcMMAE (DAR 10) at different concentrations at 37° C. for 1 hour. The unbound atezolizumab or atezolizumab-deruxtecan-vcMMAE (DAR 10) was washed away with PBST.
(In general: ELISA stands for enzyme-linked immunosorbent assay.)

The test system of data set [3] is human triple-negative breast cancer MDA-MB-231 cells. As to the kind of experiment: Cytotoxicity assay (CellTiter-Glo 2.0), MDA-MB-231. The following applies: for cytotoxicity against MDA-MB-231: atezolizumab conjugates, 0.01-500 nM for 6 days; for cancer cells killed compared with atezolizumab: MDA-MB-231, 6 days, FIG. 6B. Format: cell-based. In general terms: ATP-based viability assays read luminescence as a measure of living cells.
Experimental: Each condition was performed in triplicate. On the harvesting day, the number of viable cells in each well were measured according to the CellTiter-Glo™ 2.0 Assay process.

Chain of His-tagged human PDL1 recombinant protein (Q9NZQ7 19-290): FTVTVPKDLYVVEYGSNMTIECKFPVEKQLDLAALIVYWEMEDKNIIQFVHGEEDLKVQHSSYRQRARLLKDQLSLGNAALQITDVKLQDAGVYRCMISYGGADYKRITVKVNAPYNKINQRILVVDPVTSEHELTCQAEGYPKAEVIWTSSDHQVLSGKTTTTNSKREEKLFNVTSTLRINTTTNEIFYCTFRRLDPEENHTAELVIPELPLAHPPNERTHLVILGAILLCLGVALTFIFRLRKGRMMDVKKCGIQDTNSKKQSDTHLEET

For “atezolizumab-deruxtecan-vcMMAE (DAR 10): Atezolizumab with 8 deruxtecan on cysteines and 2 vcMMAE on light-chain lysines (DAR10)”, the protein aggregation result in data set [1] was “resistant to protein aggregation”. Besides, the pEC50 in data set [2] (Embodiment 2-3, FIG. 9) is 8.81. In data set [2], the “EC50 of the conjugate relative to EC50 of atezolizumab” value is “less than 2 times” and the “PDL1 binding signal compared with atezolizumab” value is on record as “no significant difference of signal detection”. In addition, in data set [3], the “cytotoxicity against MDA-MB-231” value is reported as “better cytotoxicity”.
As to “atezolizumab-govitecan (DAR8): Atezolizumab with 8 govitecan conjugated to cysteines by procedure (A) only (DAR8)”, the “cancer cells killed compared with atezolizumab” value in data set [3] is 25%.
Consider “atezolizumab-govitecan (DAR10): Atezolizumab with 8 govitecan on light and heavy chain cysteines and 2 govitecan on light-chain lysines (DAR10)”, for which, in data set [1], the protein aggregation entry is on record as “resistant to protein aggregation”. Besides, the pEC50 in data set [2] (Embodiment 1-3, FIG. 5) is 9.12. Moreover, in data set [2], the “EC50 of the conjugate relative to EC50 of atezolizumab” value was “less than 2 times” and the “PDL1 binding signal compared with atezolizumab” value is listed as “no significant difference of signal detection”. Besides, in data set [3], the “cancer cells killed compared with atezolizumab” value is 50% and the “cytotoxicity against MDA-MB-231” value is given as “better cytotoxicity”. Moreover, in data set [3] (listed as PDP-PDL1 mab-govitecan), the “cytotoxicity against MDA-MB-231” value was “exhibits cytotoxicity”.
On to “atezolizumab: commercially available anti-PDL1 IgG1 antibody (DAR0) [reference compound]”, for which the pEC50 in data set [2] (Embodiment 1-3, FIG. 5) is 9.26; in data set [2] (Embodiment 2-3, FIG. 9), 8.85.

Broadly, the pEC50 is the negative decadic logarithm of the EC50, by convention in mol/L.
